Assay results published in patent publication US20180216138.

Target: ferredoxin (CA_C0303) from Clostridium acetobutylicum

B1: Ferredoxin-NADP+ reductase from Clostridium acetobutylicum encoded by CA_C0764 (protein)
chain: MDNPNLLSEEANRCLLCKNPRCKANCPINTPIPEIISLYKEGKIMEAGEILFNNNPLSVICSLVCIHEDQCKGNCVRGIKSEPIKFHEIEEEISEKYLKEAKLKNVQKDKDRIAIVGGGPAGITVAFVLANKGYNVTIFEAHDKIGGVLRYGIPEYRLTKKLVDKLEERLIEVGVKIRPNTVIGPVISLDRLLEDSYKAVFIGTGVWNPKTLDVKGETLGNVHFAIDYLKSPESYRLGKKVAVIGAGNVAMDAARTAKRNGAEVTILYRKSFNEMPASKQEIRETKEDGVEFKLFRAPIEITEEGIKVAFTENVTDAEGKIRTKIIEGKEEFFECDSVVVAVSQAPKDNIVSNTTGLDTKWGLIVTDEKGNTTKKGTFACGDVVTGAKTVVEAAAQAKVVAETIDEYCKNN
  Ferredoxin NADP+ reductase specific activity: 9.5 U/mg protein
